Where a chain is given by its changes, count along the chain named. Numbers in names are those of the source.
System: engineered chimeric receptor SEQ ID NO: 33 and its mutants (human α7-nAChR ligand binding domain / human GlyRα1 ion pore domain) in Lenti-X 293T cells
Experiment: YFP fluorescence quenching anion reporter plate reader assay (percent quench, EC50)
Assay type: cell-based
Conditions: for YFP fluorescence quenching using CNL001 (percent quench): receptor named in row; for YFP fluorescence quenching using Facinicline, 30 nM fac: ligand Facinicline 30 nM; for YFP fluorescence quenching using Facinicline, 300 nM fac: ligand Facinicline 300 nM; for YFP fluorescence quenching using Facinicline, 30 uM fac: ligand Facinicline 30 uM; for YFP fluorescence quenching using TC-6987, 1 uM tc6987: ligand TC-6987 1 uM; for YFP fluorescence quenching using TC-6987, 10 uM tc6987: ligand TC-6987 10 uM; for YFP fluorescence quenching using TC-6987, 500 uM tc6987: ligand TC-6987 500 uM; for YFP fluorescence quenching using Varenicline, 3 nM var: ligand Varenicline 3 nM; for YFP fluorescence quenching using Varenicline, 30 nM var: ligand Varenicline 30 nM; for YFP fluorescence quenching using Varenicline, 300 nM var: ligand Varenicline 300 nM; for YFP fluorescence quenching using Varenicline, 500 nM var: ligand Varenicline 500 nM; for YFP fluorescence quenching using Varenicline, 1 uM var: ligand Varenicline 1 uM
Source text: To screen these mutant LGICs for those having novel response profiles to ligands, an anion reporter assay was developed to assess the function of the LGICs in a high throughput format. In this assay, cells expressing a YFP reporter whose fluorescence is quenched in the presence of anion are transfected with DNA encoding the channel of interest. Upon exposure to ligand, channels that are activated will flux anion, resulting in a dose-dependent quench of the YFP that can be detected on a plate reader. The greater the quench signal (i.e., the more positive the value), the higher the ligand activity on the receptor is.
Lenti-X 293T cells (LX293T, Clontech) were maintained in DMEM containing 10% FBS and 1% penicillin/streptomycin (Invitrogen). […] Two days before assay, cells were split at a density of 20,000 cells/well in a 96-well tissue culture plate coated with poly-d lysine (Thermo Scientific). The next day, the cells were transiently transfected with 0.1 μg of DNA per well using standard Fugene protocol (Promega). On the day of assay, cells were washed 2 times in 1X extracellular solution (1X ECS: 140 mM NaCl, 5 mM KCl, 1 mM MgCl2, 2 mM CaCl2, 10 mM HEPES, 10 mM glucose, pH 7.2, mOsms 300). After the last wash, 100 μL of 1X ECS was added to the wells and the plate was incubated at 37° C. for 30 min. While incubating the plate, the drugs were diluted to a 2X concentration in 1X ECS-Nal (same components as 1X ECS except the 140 mM NaCl was replaced by 140 mM Nal). The plates were then read on a Flexstation3 (Molecular Devices). Each well, 8 wells at a time, of the plate is read for 2 min using a Flexstation3 (Molecular Devices) as follows: 1) a baseline YFP fluorescence is read for 17 sec, 2) 100 μL of ligand is added, and 3) the changes in YFP fluorescence are then measured every 1.3 sec for 1 minute and 43 seconds. The percent quench is calculated from the average fluorescence of the last 10 seconds of the read divided by the baseline average of the first 15 seconds prior to the ligand addition.
FIGS. 1A-1J provide heat maps of the percent quench of YFP fluorescence following stimulation by various doses of either acetylcholine or the non-native ligand as indicated in the Figures. CODA71 (SEQ ID NO: 33) was used as a control, and CODA75 (SEQ ID NO: 29, a non-responding chimeric engineered receptor) was used as the negative control. Quenching of the fluorescence signal, as indicated by blue shaded cells, indicate the level of engineered receptor activation by the non-native ligand at that concentration.

[1] = 1 nM CNL001, first column so headed
[2] = 1 nM CNL001, second column so headed
[3] = 3 nM brd (TC-5619/Bradanicline)
[4] = 10 nM CNL001, first column so headed
[5] = 10 nM CNL001, second column so headed
[6] = 30 nM brd (TC-5619/Bradanicline)
[7] = 50 nM CNL001, first column so headed
[8] = 50 nM CNL001, second column so headed
[9] = 100 nM CNL001, first column so headed
[10] = 100 nM CNL001, second column so headed
[11] = 300 nM brd (TC-5619/Bradanicline)
[12] = 1 uM CNL001, first column so headed
[13] = 1 uM CNL001, second column so headed

B1: CODA236: engineered receptor: R101F in SEQ ID NO: 33 (protein)
chain: MRCSPGGVWLALAASLLHVSLQGEFQRKLYKELVKNYNPLERPVANDSQPLTVYFSLSLLQIMDVDEKNQVLTTNIWLQMSWTDHYLQWNVSEYPGVKTVFFPDGQIWKPDILLYNSADERFDATFHTNVLVNSSGHCQYLPPGIFKSSCPMDLKNFPMDVQTCKLKFGSWSYGGWSLDLQMQEADISGYIPNGEWDLVGIPGKRSERFYECCKEPYPDVTFTVTMRRRMGYYLIQMYIPSLLIVILSWISFWINMDAAPARVGLGITTVLTMTTQSSGSRASLPKVSYVKAIDIWMAVCLLFVFSALLEYAAVNFVSRQHKELLRFRRKRRHHKSPMLNLFQEDEAGEGRFNFSAYGMGPACLQAKDGISVKGANNSNTTNPPPAPSKSPEEMRKLFIQRAKKIDKISRIGFPMAFLIFNMFYWIIYKIVRREDVHNQ
modifications: synthetic sequence of chimeric LGIC
YFP fluorescence quenching using CNL001 (percent quench) [1]: 9.048% | YFP fluorescence quenching using CNL001 (percent quench) [2]: 26.601% | YFP fluorescence quenching using TC-5619/Bradanicline (percent quench) [3]: 49.33% | YFP fluorescence quenching using CNL001 (percent quench) [4]: 71.533% | YFP fluorescence quenching using CNL001 (percent quench) [5]: 72.948% | YFP fluorescence quenching using TC-5619/Bradanicline (percent quench) [6]: 77.38% | YFP fluorescence quenching using CNL001 (percent quench) [7]: 75.895% | YFP fluorescence quenching using CNL001 (percent quench) [8]: 74.238% | YFP fluorescence quenching using ABT-126 (percent quench) (50 nM abt (ABT-126)): −18.69% | YFP fluorescence quenching using CNL001 (percent quench) [9]: 76% | YFP fluorescence quenching using CNL001 (percent quench) [10]: 75.861% | YFP fluorescence quenching (percent quench) (100 nM CNL002): −9.56% | YFP fluorescence quenching using ABT-126 (percent quench) (100 nM abt (ABT-126)): −23.01% | YFP fluorescence quenching using AZD-0328 (percent quench) (100 nM azd0328): −9.78% | YFP fluorescence quenching using ABT-126 (percent quench) (300 nM abt (ABT-126)): −20.92% | YFP fluorescence quenching using AZD-0328 (percent quench) (300 nM azd0328): 49.64% | YFP fluorescence quenching using TC-5619/Bradanicline (percent quench) [11]: 77.51% | YFP fluorescence quenching using CNL001 (percent quench) [12]: 76.367% | YFP fluorescence quenching using CNL001 (percent quench) [13]: 76.162% | YFP fluorescence quenching (percent quench) (1 uM CNL002): 56.9% | YFP fluorescence quenching using ABT-126 (percent quench) (1 uM abt (ABT-126)): 4.99% | YFP fluorescence quenching (percent quench) (10 uM ach (acetylcholine)): −18.24% | YFP fluorescence quenching (percent quench) (30 uM CNL002): 70.28% | YFP fluorescence quenching using AZD-0328 (percent quench) (30 uM azd0328): 81.14% | YFP fluorescence quenching (percent quench) (100 uM ach (acetylcholine)): 60% | YFP fluorescence quenching (percent quench) (1 mM ach (acetylcholine)): 66.07% | YFP fluorescence quenching (percent quench) (3 mM ach (acetylcholine)): 71.38% | YFP fluorescence quenching using Facinicline, 30 nM fac: −28.54 | YFP fluorescence quenching using Facinicline, 300 nM fac: 72.98 | YFP fluorescence quenching using Facinicline, 30 uM fac: 87.6 | YFP fluorescence quenching using TC-6987, 1 uM tc6987: 45.34 | YFP fluorescence quenching using TC-6987, 10 uM tc6987: 70.04 | YFP fluorescence quenching using TC-6987, 500 uM tc6987: 75.86 | YFP fluorescence quenching using Varenicline, 3 nM var (first column): 19.949 | YFP fluorescence quenching using Varenicline, 3 nM var (second column): 22.334 | YFP fluorescence quenching using Varenicline, 30 nM var (first column): 15.764 | YFP fluorescence quenching using Varenicline, 30 nM var (second column): 16.213 | YFP fluorescence quenching using Varenicline, 300 nM var (first column): 23.135 | YFP fluorescence quenching using Varenicline, 300 nM var (second column): 22.987 | YFP fluorescence quenching using Varenicline, 500 nM var (first column): 35.048 | YFP fluorescence quenching using Varenicline, 500 nM var (second column): 34.188 | YFP fluorescence quenching using Varenicline, 1 uM var (first column): 71.031 | YFP fluorescence quenching using Varenicline, 1 uM var (second column): 71.005

B2: CODA237: engineered receptor: R101M in SEQ ID NO: 33 (protein)
chain: B1 chain with F101M
modifications: synthetic sequence of chimeric LGIC
YFP fluorescence quenching using CNL001 (percent quench) [1]: −2.114% | YFP fluorescence quenching using CNL001 (percent quench) [2]: −5.079% | YFP fluorescence quenching using TC-5619/Bradanicline (percent quench) [3]: −14.87% | YFP fluorescence quenching using CNL001 (percent quench) [4]: 15.096% | YFP fluorescence quenching using CNL001 (percent quench) [5]: 50.554% | YFP fluorescence quenching using TC-5619/Bradanicline (percent quench) [6]: 69.93% | YFP fluorescence quenching using CNL001 (percent quench) [7]: 66.585% | YFP fluorescence quenching using CNL001 (percent quench) [8]: 74.462% | YFP fluorescence quenching using ABT-126 (percent quench) (50 nM abt (ABT-126)): −24.34% | YFP fluorescence quenching using CNL001 (percent quench) [9]: 78% | YFP fluorescence quenching using CNL001 (percent quench) [10]: 77.411% | YFP fluorescence quenching (percent quench) (100 nM CNL002): −8.68% | YFP fluorescence quenching using ABT-126 (percent quench) (100 nM abt (ABT-126)): −20.22% | YFP fluorescence quenching using AZD-0328 (percent quench) (100 nM azd0328): −17.84% | YFP fluorescence quenching using ABT-126 (percent quench) (300 nM abt (ABT-126)): −20.57% | YFP fluorescence quenching using AZD-0328 (percent quench) (300 nM azd0328): −11.98% | YFP fluorescence quenching using TC-5619/Bradanicline (percent quench) [11]: 76.57% | YFP fluorescence quenching using CNL001 (percent quench) [12]: 79.06% | YFP fluorescence quenching using CNL001 (percent quench) [13]: 79.162% | YFP fluorescence quenching (percent quench) (1 uM CNL002): −2.24% | YFP fluorescence quenching using ABT-126 (percent quench) (1 uM abt (ABT-126)): −19.55% | YFP fluorescence quenching (percent quench) (10 uM ach (acetylcholine)): −16.79% | YFP fluorescence quenching (percent quench) (30 uM CNL002): 66.99% | YFP fluorescence quenching using AZD-0328 (percent quench) (30 uM azd0328): 81.2% | YFP fluorescence quenching (percent quench) (100 uM ach (acetylcholine)): −18.63% | YFP fluorescence quenching (percent quench) (1 mM ach (acetylcholine)): 46.28% | YFP fluorescence quenching (percent quench) (3 mM ach (acetylcholine)): 69.31% | YFP fluorescence quenching using Facinicline, 30 nM fac: −24.14 | YFP fluorescence quenching using Facinicline, 300 nM fac: −14.38 | YFP fluorescence quenching using Facinicline, 30 uM fac: 88.78 | YFP fluorescence quenching using TC-6987, 1 uM tc6987: −21.62 | YFP fluorescence quenching using TC-6987, 10 uM tc6987: 21.52 | YFP fluorescence quenching using TC-6987, 500 uM tc6987: 60.33 | YFP fluorescence quenching using Varenicline, 3 nM var (first column): 18.429 | YFP fluorescence quenching using Varenicline, 3 nM var (second column): 16.83 | YFP fluorescence quenching using Varenicline, 30 nM var (first column): 23.07 | YFP fluorescence quenching using Varenicline, 30 nM var (second column): 15.868 | YFP fluorescence quenching using Varenicline, 300 nM var (first column): 18.819 | YFP fluorescence quenching using Varenicline, 300 nM var (second column): 19.155 | YFP fluorescence quenching using Varenicline, 500 nM var (first column): 19.117 | YFP fluorescence quenching using Varenicline, 500 nM var (second column): 22.593 | YFP fluorescence quenching using Varenicline, 1 uM var (first column): 24.525 | YFP fluorescence quenching using Varenicline, 1 uM var (second column): 23.383

From patent US20250152742A1, “COMPOSITIONS AND METHODS FOR NEUROLOGICAL DISEASES” (Trames Bio, Inc., priority 2022, published 2025)
